Among the data in publication PMC7404976 are stoichiometry N values, retold here.

This test addresses MBP-Vip3Aa11(200-end), the C-terminal fragment of Vip3A toxin with an N-terminal 6xHis-MBP tag (Bacillus thuringiensis strain C9). The experiment in a line: crystal structure; MBP-Vip3Aa(200-end) 7 mg/mL, hanging drop at 18 °C, 0.1 M sodium acetate pH 4.2, 0.5 M potassium formate, 0.1 M ammonium sulfate, 11% PEG4000; space group P21, four molecules in one asymmetric unit, 3.2 Å.

As usually defined, the stoichiometry N is the number of molecules, sites or subunits per partner or assembly. “MBP-Vip3Aa11(200-end), the C-terminal fragment of Vip3A toxin with an N-terminal 6xHis-MBP tag (domain or fragment)” displayed a stoichiometry N of 2.
